We go through 2 molecules from patent US20230002458A1 (ALPHABETA, published 2023).

Series [1] concerns the target T1, rh wt Bri2 BRICHOS-mCherry oligomers (human, UniProt A5A6H8 113-231 (Pan troglodytes entry)).
T1 sequence: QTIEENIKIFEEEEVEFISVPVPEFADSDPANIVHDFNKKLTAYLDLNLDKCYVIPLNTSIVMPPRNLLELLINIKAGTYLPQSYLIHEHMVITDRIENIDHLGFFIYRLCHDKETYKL
Put plainly: cell-based or functional assay.

Series [2] deals with the molecule itself. Put plainly: size exclusion chromatography, self-association.

B1: rh Bri2 BRICHOS R221E monomer (other)
chain: QTIEENIKIFEEEEVEFISVPVPEFADSDPANIVHDFNKKLTAYLDLNLDKCYVIPLNTSIVMPPRNLLELLINIKAGTYLPQSYLIHEHMVITDRIENIDHLGFFIYELCHDKETYKL
As to B1, in series [1], the “release of wt monomers from oligomers after co-incubation” value was ~2 molar ratio mutant:wt.

B2: rh wt Bri2 BRICHOS (other)
chain: QTIEENIKIFEEEEVEFISVPVPEFADSDPANIVHDFNKKLTAYLDLNLDKCYVIPLNTSIVMPPRNLLELLINIKAGTYLPQSYLIHEHMVITDRIENIDHLGFFIYRLCHDKETYKL
notes: also called Bri2 BRICHOS [Bri2(113-231)]; wt protein
Turning to B2, the binding result in series [2] is listed as “binds”.
